# Results published in patent publication US20030166571A1 (SYNVAX, published 2003).
# Numbered stars: 1 amine (or outer) side, 2 acyl side, 3 side chain; on linkers, the order of the positions; unused ones are H or OH. Square brackets hold non-standard residues; d marks the D form. Ends that are not written are not given here. * marks the point of attachment. Tyr(BN,3-Cl) = tyrosine with benzyl (BN) and 3-Cl, O=C([C@H](Cc1ccc(OCc2ccccc2)c(Cl)c1)N[*:1])[*:2]; Phe(4-NO2) = N[C@@H](Cc1ccc([N+](=O)[O-])cc1)C(=O)O; Phe(4-SO3H) = N[C@@H](Cc1ccc(S(=O)(=O)O)cc1)C(=O)O; Trp(5-CN) = N#Cc1ccc2[nH]cc(C[C@H](N)C(=O)O)c2c1; Phe(4-COOH) = N[C@@H](Cc1ccc(C(=O)O)cc1)C(=O)O; Phe(4-CN) = N#Cc1ccc(C[C@H](N)C(=O)O)cc1; Phe(4-F) = N[C@@H](Cc1ccc(F)cc1)C(=O)O; Phe(4-Me) = Cc1ccc(C[C@H](N)C(=O)O)cc1; hPhe = N[C@@H](CCc1ccccc1)C(=O)O; Phg = N[C@H](C(=O)O)c1ccccc1; Ac6c = NC1(C(=O)O)CCCCC1; Pentanoyl = CCCCC(=O)*; Ahx = NCCCCCC(=O)O
# B1: VII-39-D (peptide)
# peptide: Ac-R[Tyr(BN,3-Cl)]YRWR-NH2
# notes: also called Ac-Arg-Tyr(BN*, 3-Cl)-Tyr-Arg-Trp-Arg-NH2
# B2: VII-43-C (peptide)
# peptide: Ac-R[Phe(4-CN)]YRWR-NH2
# SMILES: CC(=O)N[C@@H](CCCNC(=N)N)C(=O)N[C@@H](Cc1ccc(C#N)cc1)C(=O)N[C@@H](Cc1ccc(O)cc1)C(=O)N[C@@H](CCCNC(=N)N)C(=O)N[C@@H](Cc1c[nH]c2ccccc12)C(=O)N[C@@H](CCCNC(=N)N)C(N)=O
# notes: also called Ac-Arg-Phe(4-CN)-Tyr-Arg-Trp-Arg-NH2
# B3: VII-37-B (peptide)
# peptide: Ac-R[Tyr(4-Me)][Tyr(4-Me)]RWR-NH2
# notes: also called Ac-Arg-Tyr(4-Me)-Tyr(4-Me)-Arg-Trp-Arg-NH2
# B4: VII-1-A (peptide)
# peptide: Nipacotyl-RYYRWR-NH2
# notes: also called Nipacotyl-Arg-Tyr-Tyr-Arg-Trp-Arg-NH2
# B5: VII-27-B (peptide)
# peptide: Ac-R[Phe(4-SO3H)]YRWR-NH2
# notes: also called Ac-Arg-Phe(SO3H)-Tyr-Arg-Trp-Arg-NH2
# B6: VII-7-B (peptide)
# peptide: Pentanoyl-RYYRWR-NH2
# SMILES: CCCCC(=O)N[C@@H](CCCNC(=N)N)C(=O)N[C@@H](Cc1ccc(O)cc1)C(=O)N[C@@H](Cc1ccc(O)cc1)C(=O)N[C@@H](CCCNC(=N)N)C(=O)N[C@@H](Cc1c[nH]c2ccccc12)C(=O)N[C@@H](CCCNC(=N)N)C(N)=O
# notes: also called Pentanoyl-Arg-Tyr-Tyr-Arg-Trp-Arg-NH2; Pentanoyl-RYYRWR-NH2
# B7: VII-49-B (peptide)
# peptide: Ac-R[hPhe][hPhe]RWR-NH2
# SMILES: CC(=O)N[C@@H](CCCNC(=N)N)C(=O)N[C@@H](CCc1ccccc1)C(=O)N[C@@H](CCc1ccccc1)C(=O)N[C@@H](CCCNC(=N)N)C(=O)N[C@@H](Cc1c[nH]c2ccccc12)C(=O)N[C@@H](CCCNC(=N)N)C(N)=O
# notes: also called Ac-Arg-hPhe-hPhe-Arg-Trp-Arg-NH2
# B8: VII-17-B (peptide)
# peptide: Ac-R[Phe(4-Me)][Phe(4-Me)]RWR-NH2
# SMILES: CC(=O)N[C@@H](CCCNC(=N)N)C(=O)N[C@@H](Cc1ccc(C)cc1)C(=O)N[C@@H](Cc1ccc(C)cc1)C(=O)N[C@@H](CCCNC(=N)N)C(=O)N[C@@H](Cc1c[nH]c2ccccc12)C(=O)N[C@@H](CCCNC(=N)N)C(N)=O
# notes: also called Ac-Arg-Phe(4-Me)-Phe(4-Me)-Arg-Trp-Arg-NH2
# B9: VII-11-B (peptide)
# peptide: Ac-R[Phg][Phg]RWR-NH2
# SMILES: CC(=O)N[C@@H](CCCNC(=N)N)C(=O)N[C@H](C(=O)N[C@H](C(=O)N[C@@H](CCCNC(=N)N)C(=O)N[C@@H](Cc1c[nH]c2ccccc12)C(=O)N[C@@H](CCCNC(=N)N)C(N)=O)c1ccccc1)c1ccccc1
# notes: also called Ac-Arg-Phg-Phg-Arg-Trp-Arg-NH2
# B10: VII-31-B (peptide)
# peptide: Ac-R[Phe(4-F)]YRWR-NH2
# SMILES: CC(=O)N[C@@H](CCCNC(=N)N)C(=O)N[C@@H](Cc1ccc(F)cc1)C(=O)N[C@@H](Cc1ccc(O)cc1)C(=O)N[C@@H](CCCNC(=N)N)C(=O)N[C@@H](Cc1c[nH]c2ccccc12)C(=O)N[C@@H](CCCNC(=N)N)C(N)=O
# notes: also called Ac-Arg-Phe(4-F)-Tyr-Arg-Trp-Arg-NH2
# B11: VII-15-B (peptide)
# peptide: Ac-R[Phe(4-Me)]YRWR-NH2
# SMILES: CC(=O)N[C@@H](CCCNC(=N)N)C(=O)N[C@@H](Cc1ccc(C)cc1)C(=O)N[C@@H](Cc1ccc(O)cc1)C(=O)N[C@@H](CCCNC(=N)N)C(=O)N[C@@H](Cc1c[nH]c2ccccc12)C(=O)N[C@@H](CCCNC(=N)N)C(N)=O
# notes: also called Ac-Arg-Phe(4-Me)-Tyr-Arg-Trp-Arg-NH2
# B12: VII-3-A (peptide)
# peptide: {β‑aminoisobutryl}-RYYRWR-NH2
# notes: also called β-aminoisobutryl-Arg-Tyr-Tyr-Arg-Trp-Arg-NH2
# B13: VII-4-B (peptide)
# peptide: [Ac6c]RYYRWR-NH2
# modifications: N-terminus assumed
# SMILES: N=C(N)NCCC[C@H](NC(=O)[C@H](Cc1c[nH]c2ccccc12)NC(=O)[C@H](CCCNC(=N)N)NC(=O)[C@H](Cc1ccc(O)cc1)NC(=O)[C@H](Cc1ccc(O)cc1)NC(=O)[C@H](CCCNC(=N)N)NC(=O)C1(N)CCCCC1)C(N)=O
# notes: also called 1-aminocyclohexanoyl-Arg-Tyr-Tyr-Arg-Trp-Arg-NH2
# B14: VII-51-A (peptide)
# peptide: Ac-RYYR[Trp(5-CN)]R-NH2
# SMILES: CC(=O)N[C@@H](CCCNC(=N)N)C(=O)N[C@@H](Cc1ccc(O)cc1)C(=O)N[C@@H](Cc1ccc(O)cc1)C(=O)N[C@@H](CCCNC(=N)N)C(=O)N[C@@H](Cc1c[nH]c2ccc(C#N)cc12)C(=O)N[C@@H](CCCNC(=N)N)C(N)=O
# notes: also called Ac-Arg-Tyr-Tyr-Arg-Trp(5-CN)-Arg-NH2
# B15: VII-55-A (peptide)
# peptide: Ac-RYY[Ahx]WR-NH2
# SMILES: CC(=O)N[C@@H](CCCNC(=N)N)C(=O)N[C@@H](Cc1ccc(O)cc1)C(=O)N[C@@H](Cc1ccc(O)cc1)C(=O)NCCCCCC(=O)N[C@@H](Cc1c[nH]c2ccccc12)C(=O)N[C@@H](CCCNC(=N)N)C(N)=O
# notes: also called Ac-Arg-Tyr-Tyr-ε-aminocaproyl-Trp-Arg-NH2
# B16: VII-23-B (peptide)
# peptide: Ac-R[Phe(4-NO2)]YRWR-NH2
# SMILES: CC(=O)N[C@@H](CCCNC(=N)N)C(=O)N[C@@H](Cc1ccc([N+](=O)[O-])cc1)C(=O)N[C@@H](Cc1ccc(O)cc1)C(=O)N[C@@H](CCCNC(=N)N)C(=O)N[C@@H](Cc1c[nH]c2ccccc12)C(=O)N[C@@H](CCCNC(=N)N)C(N)=O
# notes: also called Ac-Arg-Phe(NO2)-Tyr-Arg-Trp-Arg-NH2
# B17: VII-2-A (peptide)
# peptide: {β‑Nva}-RYYRWR-NH2
# notes: also called β-Nva-Arg-Tyr-Tyr-Arg-Trp-Arg-NH2
# B18: VII-35-C (peptide)
# peptide: Ac-R[Tyr(4-Me)]YRWR-NH2
# notes: also called Ac-Arg-Tyr(4-Me)-Tyr-Arg-Trp-Arg-NH2
# B19: VII-19-B (peptide)
# peptide: Ac-R[Phe(4-COOH)]YRWR-NH2
# SMILES: CC(=O)N[C@@H](CCCNC(=N)N)C(=O)N[C@@H](Cc1ccc(C(=O)O)cc1)C(=O)N[C@@H](Cc1ccc(O)cc1)C(=O)N[C@@H](CCCNC(=N)N)C(=O)N[C@@H](Cc1c[nH]c2ccccc12)C(=O)N[C@@H](CCCNC(=N)N)C(N)=O
# notes: also called Ac-Arg-Phe(4-COOH)-Tyr-Arg-Trp-Arg-NH2
# B20: VII-53-B (peptide)
# peptide: Ac-[Ahx]YYRWR-NH2
# SMILES: CC(=O)NCCCCCC(=O)N[C@@H](Cc1ccc(O)cc1)C(=O)N[C@@H](Cc1ccc(O)cc1)C(=O)N[C@@H](CCCNC(=N)N)C(=O)N[C@@H](Cc1c[nH]c2ccccc12)C(=O)N[C@@H](CCCNC(=N)N)C(N)=O
# notes: also called Ac-ε-aminocaproyl-Tyr-Tyr-Arg-Trp-Arg-NH2
# B21: VII-33-B (peptide)
# peptide: Ac-R[Phe(4-F)][Phe(4-F)]RWR-NH2
# SMILES: CC(=O)N[C@@H](CCCNC(=N)N)C(=O)N[C@@H](Cc1ccc(F)cc1)C(=O)N[C@@H](Cc1ccc(F)cc1)C(=O)N[C@@H](CCCNC(=N)N)C(=O)N[C@@H](Cc1c[nH]c2ccccc12)C(=O)N[C@@H](CCCNC(=N)N)C(N)=O
# notes: also called VII-33-C; Ac-Arg-Phe(4-F)-Phe(4-F)-Arg-Trp-Arg-NH2
# B22: VII-13-B (peptide)
# peptide: Ac-RY[Phg]RWR-NH2
# SMILES: CC(=O)N[C@@H](CCCNC(=N)N)C(=O)N[C@@H](Cc1ccc(O)cc1)C(=O)N[C@H](C(=O)N[C@@H](CCCNC(=N)N)C(=O)N[C@@H](Cc1c[nH]c2ccccc12)C(=O)N[C@@H](CCCNC(=N)N)C(N)=O)c1ccccc1
# notes: also called Ac-Arg-Tyr-Phg-Arg-Trp-Arg-NH2
# Target: T1, human ORL-1 receptor (opioid receptor like 1) (human, UniProt P41146 1-370)
# T1 construct: whole, on cells; Assays were run on membranes of CHO cells transfected with human ORL-1; also called opiate receptor like 1; nociceptin receptor
# T1 sequence (P41146 whole entry): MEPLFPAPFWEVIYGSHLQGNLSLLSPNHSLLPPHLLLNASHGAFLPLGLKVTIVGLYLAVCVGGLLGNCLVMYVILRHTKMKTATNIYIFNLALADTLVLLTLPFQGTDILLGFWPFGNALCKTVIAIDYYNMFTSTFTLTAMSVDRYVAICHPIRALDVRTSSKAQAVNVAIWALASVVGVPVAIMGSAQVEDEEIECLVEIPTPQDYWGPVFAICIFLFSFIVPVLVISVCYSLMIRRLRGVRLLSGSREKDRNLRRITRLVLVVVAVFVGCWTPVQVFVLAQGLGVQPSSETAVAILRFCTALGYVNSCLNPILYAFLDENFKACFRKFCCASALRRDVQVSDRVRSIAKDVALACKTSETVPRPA
# Experiment: [3H]nociceptin displacement, membranes of CHO cells transfected with human ORL-1; Ki=IC50/(1+L/Kd)
# Procedure: Receptor binding studies were conducted on human ORL1 (opiate receptor like 1) transfected into Chinese hamster ovary (CHO) cells using each of the hexapeptide analog compounds of Table 3. All the compounds were evaluated for binding affinities. […] The data shown in Table 5 represents the average±SEM of at least two experiments conducted in triplicate.
# Cells are removed from the plates by scraping with a rubber policeman, and then homogenized in Tris buffer using a Polytron homogenizer. Following this homogenization step, the cellular mixture is centrifuged once and washed by an additional centrifugation at 40,000×g for 15 min. The pellet formed during the centrifugation is re-suspended in 50 mM Tris, pH 7.5. […] Samples of the suspension are then filtered over glass fiber filters using a Wallac cell harvester.
# For the data in Table 5, binding was conducted as described above. IC₅₀ values and Hill coefficients were determined using the curve-fitting program Prism. K₁ values were calculated using the equation K₁=IC₅₀/(1+[L]/Kd). […] The data in Table 5 represent the average±SEM of at least two experiments conducted in triplicate.
row,Binder,Ki
1,B1,0.03 nM
2,B2,0.15 nM
3,B3,6.29 nM
4,B4,30.3 nM
5,B5,155 nM
6,B6,0.16 nM
7,B7,5.49 nM
8,B8,10.1 nM
9,B9,30.4 nM
10,B10,0.52 nM
11,B11,0.48 nM
12,B12,1.18 nM
13,B13,9.25 nM
14,B14,0.3 nM
15,B15,39 nM
16,B16,0.44 nM
17,B17,11.8 nM
18,B18,0.43 nM
19,B19,40.6 nM
20,B20,29.1 nM
21,B21,1.51 nM
22,B22,27 nM

# Target: T1, human ORL-1 receptor (opioid receptor …)
# Experiment: cell-based or functional assay
Binder,% Stimulation of [35S]GTPγS binding,EC50 (nM) of stimulation of [35S]GTPγS binding
B1,89%,0.3 nM
B2,49.7%,29.5 nM
B3,< 20%,
B4,< 20%,
B6,< 20%,
B7,< 20%,
B8,< 20%,
B10,54.4%,35.7 nM
B11,59.8%,18.8 nM
B12,29.1%,68 nM
B13,< 20%,
B14,49.1%,156 nM
B15,26.6%,1230 nM
B16,56.6%,15.7 nM
B17,< 20%,
B18,52.1%,51.1 nM
B19,45.5%,854 nM
B20,39.5%,167 nM
B21,< 20%,
